In patent US20230340151A1 (Pfizer, published 2023):

Columns and labels:
Assay in all cases: flow cytometry on cells displaying the construct
[1] = molecular target: T1, CID1880 (human-chicken GUCY2c chimera) (human/chicken)
T1 chain: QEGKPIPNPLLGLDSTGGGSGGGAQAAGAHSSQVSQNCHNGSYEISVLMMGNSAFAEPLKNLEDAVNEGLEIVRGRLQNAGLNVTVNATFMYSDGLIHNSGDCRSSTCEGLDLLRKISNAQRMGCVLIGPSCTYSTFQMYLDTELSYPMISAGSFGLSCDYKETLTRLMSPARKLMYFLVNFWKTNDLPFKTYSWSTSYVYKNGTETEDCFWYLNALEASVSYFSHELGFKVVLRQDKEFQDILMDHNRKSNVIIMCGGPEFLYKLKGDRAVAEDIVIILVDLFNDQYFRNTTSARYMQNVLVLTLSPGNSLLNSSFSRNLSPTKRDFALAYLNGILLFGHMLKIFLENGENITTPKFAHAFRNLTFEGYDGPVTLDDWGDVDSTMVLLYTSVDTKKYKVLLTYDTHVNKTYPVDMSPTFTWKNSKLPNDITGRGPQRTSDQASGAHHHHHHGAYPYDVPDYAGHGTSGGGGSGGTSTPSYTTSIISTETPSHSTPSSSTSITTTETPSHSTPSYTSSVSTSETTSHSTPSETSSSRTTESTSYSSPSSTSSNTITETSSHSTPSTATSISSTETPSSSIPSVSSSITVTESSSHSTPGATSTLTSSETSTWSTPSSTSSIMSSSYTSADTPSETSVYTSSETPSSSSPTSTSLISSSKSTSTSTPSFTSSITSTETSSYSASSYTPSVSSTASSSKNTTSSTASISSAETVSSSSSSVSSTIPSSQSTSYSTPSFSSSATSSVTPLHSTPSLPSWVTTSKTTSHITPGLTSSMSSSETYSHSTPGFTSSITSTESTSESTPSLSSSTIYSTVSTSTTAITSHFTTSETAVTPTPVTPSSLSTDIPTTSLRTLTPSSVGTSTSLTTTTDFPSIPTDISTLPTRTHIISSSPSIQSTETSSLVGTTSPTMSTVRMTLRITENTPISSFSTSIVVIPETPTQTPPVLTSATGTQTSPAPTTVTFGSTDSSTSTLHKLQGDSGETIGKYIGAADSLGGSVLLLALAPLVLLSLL
Excerpt: (§1) Cells were then washed three times with PBS+0.5% BSA buffer. […] Cells were washed three times with PBS+0.5% BSA buffer and then analyzed on a flow cytometer.
(§2) MFI (median fluorescence intensity) of anti-GUCY2c antibody binding to the cells was normalized to expression on cell surface measured by MFI of anti-tag antibodies. All the cells expressed V5 and HA on the cell surface for expression normalization.

[2] = molecular target: CID1948 (human GUCY2c point mutant) (human)
Excerpt: as §1, §2

[3] = molecular target: CID1943 (human GUCY2c point mutant) (human)
Excerpt: as §1, §2

[4] = molecular target: T2, CID1879 (human-chicken GUCY2c chimera) (human/chicken)
T2 chain: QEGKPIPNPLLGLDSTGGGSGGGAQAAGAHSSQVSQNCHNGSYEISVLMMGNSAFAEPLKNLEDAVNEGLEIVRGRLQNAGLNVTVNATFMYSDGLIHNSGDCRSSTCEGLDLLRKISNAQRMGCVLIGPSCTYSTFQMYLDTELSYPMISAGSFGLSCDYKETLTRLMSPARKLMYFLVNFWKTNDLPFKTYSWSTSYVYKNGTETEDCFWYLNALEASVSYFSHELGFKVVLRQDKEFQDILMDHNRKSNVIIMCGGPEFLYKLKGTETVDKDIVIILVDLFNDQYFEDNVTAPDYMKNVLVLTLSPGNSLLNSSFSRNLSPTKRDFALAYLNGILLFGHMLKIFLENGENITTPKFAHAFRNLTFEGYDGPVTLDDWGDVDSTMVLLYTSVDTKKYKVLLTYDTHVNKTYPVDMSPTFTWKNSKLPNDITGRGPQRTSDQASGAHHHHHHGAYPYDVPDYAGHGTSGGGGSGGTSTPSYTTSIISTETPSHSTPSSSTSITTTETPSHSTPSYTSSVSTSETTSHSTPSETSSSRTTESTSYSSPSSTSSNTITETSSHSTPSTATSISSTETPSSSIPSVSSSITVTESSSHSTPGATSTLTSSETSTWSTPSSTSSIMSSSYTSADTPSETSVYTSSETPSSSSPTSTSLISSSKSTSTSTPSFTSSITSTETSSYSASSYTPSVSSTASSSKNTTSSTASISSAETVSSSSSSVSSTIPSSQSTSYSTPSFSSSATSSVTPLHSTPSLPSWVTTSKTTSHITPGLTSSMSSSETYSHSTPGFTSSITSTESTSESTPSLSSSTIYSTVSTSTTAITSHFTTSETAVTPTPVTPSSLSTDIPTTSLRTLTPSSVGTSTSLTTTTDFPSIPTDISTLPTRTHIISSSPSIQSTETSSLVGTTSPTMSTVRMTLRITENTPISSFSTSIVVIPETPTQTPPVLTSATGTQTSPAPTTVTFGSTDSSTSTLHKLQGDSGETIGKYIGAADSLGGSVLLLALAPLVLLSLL
Excerpt: as §1, §2

[5] = molecular target: CID1949 (human GUCY2c point mutant) (human)
Excerpt: as §1, §2

Measured: binding result

B1: GUCY2C-1608 (bispecific antibody)
chain 1: DIQLTQSPSSLSASVGDRVTITCRASESVDYYGSSLLQWYQQKPGKAPKLLIYAASKLASGVPSRFSGSGSGTDFTLTISSLQPEDFATYYCQQTRKAYTFGQGTKLEIKGGGSGGGGEVQLVESGGGLVQPGGSLRLSCAASGFTFSDYYMTWVRQAPGKGLEWVAFIRNQARGYTSDHNPSVKGRFTISRDNAKNSLYLQMNSLRAEDTAVYYCARDRPSYYVLDYWGQGTTVTVSSGCPPCPAPEAAGAPSVFLFPPKPKDTLMISRTPEVTCVVVDVSHEDPEVKFNWYVDGVEVHNAKTKPREEQYNSTYRVVSVLTVLHQDWLNGKEYKCKVSNKALPAPIEKTISKAKGQPREPQVCTLPPSREEMTKNQVSLWCLVKGFYPSDIAVEWESNGQPENNYKTTPPVLDSDGSFFLYSKLTVDKSRWQQGNVFSCSVMHEALHNHYTQKSLSLSPG
chain 2: DIQMTQSPSSLSASVGDRVTITCTSSQSLFNVRSQKNYLAWYQQKPGKAPKLLIYWASTRESGVPSRFSGSGSGTDFTLTISSLQPEDFATYYCKQSYDLFTFGGGTKVEIKGGGGSGGGGEVQLVESGGGLVQPGGSLRLSCAASGFTFSSYWMHWVRQAPGKGLEWIGEIKPSNELTNVHEKFKDRFTISVDKAKNSAYLQMNSLRAEDTAVYYCTRTITTTEGYWFFDVWGQGTLVTVSSGCPPCPAPEAAGAPSVFLFPPKPKDTLMISRTPEVTCVVVDVSHEDPEVKFNWYVDGVEVHNAKTKPREEQYNSTYRVVSVLTVLHQDWLNGKEYKCKVSNKALPAPIEKTISKAKGQPREPQVYTLPPCREEMTKNQVSLSCAVKGFYPSDIAVEWESNGQPENNYKTTPPVLDSDGSFFLVSKLTVDKSRWQQGNVFSCSVMHEALHNHYTQKSLSLSPG
notes: also called GUCY2c CD3 bispecific
binds: [1] | [2] | [3] | [4] | [5]
